The source of these data is US6030777.

Experiment [1] concerns the target Salmonella typhimurium sigma^70, purified (Salmonella typhimurium) (UniProt P0A2E3).
The target in experiment [2] is E. coli sigma^70 (E. coli) (UniProt P00579).
Experiment [3] has as its target E. coli core RNA polymerase (E. coli) (UniProt P0A7Z4).

In experiment [1], “AsiA protein (10 kDa anti-sigma^70 factor of bacteriophage T4), purified” showed an RNA polymerase activity, [^3 H]UTP (nmol), after adding S. typhimurium sigma^70 to E. coli RNA polymerase inhibited by AsiA ([^3 H]UTP (nmol)) of 3 and an RNA polymerase activity, [^3 H]UTP (nmol), with sigma^70 preincubated with AsiA ([^3 H]UTP (nmol)) of 0.98. The same substance had an E. coli RNA polymerase assay (sigma^70 dependent transcription on T4 phage DNA) in experiment [2] greater than 80 % inhibited.

In experiment [3], “Salmonella typhimurium sigma^70, purified (from UniProt P0A2E3)” displayed an RNA polymerase activity, [^3 H]UTP (nmol) ([^3 H]UTP (nmol)) of 2.3.
